Target: vasopressin V2 receptor-RlucII (hV2R wt-RlucII) (human)
Experiment: cell-based or functional assay

EC50 of agonist-promoted receptor internalization (decrease of BRET between receptor-RlucII and lyn-rGFP): 2200 nM
Substance: Oxytocin (from UniProt P01178 20-28) (peptide)

Source: patent US20170313762A1
